# Measured values as given in publication PMC7593903.
# Molecular target: T1, ZafA (Aspergillus fumigatus (FGSC A1163 akuB(KU80)-delta pyrG1 is the study strain; cDNA source 'fungal cDNA')) (UniProt A3QX02)
# T1 sequence: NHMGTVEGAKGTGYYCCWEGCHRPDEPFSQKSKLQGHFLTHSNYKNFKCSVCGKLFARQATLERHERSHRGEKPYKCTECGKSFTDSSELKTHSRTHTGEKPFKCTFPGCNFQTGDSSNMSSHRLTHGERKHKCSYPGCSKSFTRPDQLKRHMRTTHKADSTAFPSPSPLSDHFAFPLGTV
# Experiment: EMSA
# Details: 10 mM Tris-HCl pH 8.0, 50 mM NaCl, 1 mM MgCl2, 500 uM EDTA, 500 uM DTT, 4% glycerol; 500 ng ZafA, 5 ng probe; 30 min at 25 C; Zn/Cu added 10 min after start of …
row,Sequence,binding
1,"AAGGGCCCAGGGCCTGTCTTGTTGTACGACTTCACTTTCTCCCAGGGTGCCACTGCTTGCTATCTCTATGTAGATAACCGCTGTCTTTCCTCTTTTTTTGACCCTTTCTTCTATTGCTCTGGTCTGCT (double strand) [CtrC promoter EMSA probe, 128 bp]",binds
2,"CTCAAAGCTCGCTCATCGGATTTTTGATTATCAGTTTTGCGAGACCAAGCATGATAGTGACAGAGCATTCAAGGTGAGAATGTGAAGAATGCGTGGCGGCGTAGCATTCTTACT (double strand) [CtrA2 promoter EMSA probe, 114 bp]",no binding
3,"TACCAGGGCCCCTTTCCCTCAAGTTGCTCGCACAGATCTGGATGTTACTTTCATCGAATATATACACGTGGGAAGCTCCCAAGGTCCTCTTGGAT (double strand) [ZafA promoter EMSA probe, 95 bp]",binds
4,"TGCCGCCATTGTTCAGCAGTGCGGTGCTGTCAAGGTCAAGGTCAAGGACGGCCTTCTCCAAGGATGTCACATACAAAGGGAATAGACTGAATAAATCATTTCCTCGGCAACGATCCGA (double strand) [CtrA1 promoter EMSA probe, 118 bp]",no binding

# Molecular target: T1, ZafA (Aspergillus fumigatus (FGSC A1163 akuB(KU80)-delta pyrG1 is the study strain; cDNA source 'fungal cDNA'))
# Experiment: competition
# Details: 10 mM Tris-HCl pH 8.0, 50 mM NaCl, 1 mM MgCl2, 500 uM EDTA, 500 uM DTT, 4% glycerol; 500 ng ZafA, 5 ng probe; 30 min at 25 C; Zn/Cu added 10 min after start of …
row,Sequence,binding
1,"AAGGGCCCAGGGCCTGTCTTGTTGTACGACTTCACTTTCTCCCAGGGTGCCACTGCTTGCTATCTCTATGTAGATAACCGCTGTCTTTCCTCTTTTTTTGACCCTTTCTTCTATTGCTCTGGTCTGCT (double strand) [CtrC promoter fragment, unlabeled]",binds
2,AGCAGACCAGAGCAATAGAAGAAAGGGTCAAAAAAAGAGGAAAGACAGCGGTTATCTACATAGAGATAGCAAGCAGTGGCTGGGACGGAGAAAGTGAAGTCGTACAACAAGACAGGCCCTGGGCCCTT (double strand),no binding
